{"source": "patent US20240368267A1", "about": "(KODIAK SCIENCES, published 2024)", "key": {"VEGF": {"target": "VEGF (UniProt P15692-4 27-191, limits assumed)", "sequence (P15692 other isoform, or with tags, fused parts or gaps limits assumed)": "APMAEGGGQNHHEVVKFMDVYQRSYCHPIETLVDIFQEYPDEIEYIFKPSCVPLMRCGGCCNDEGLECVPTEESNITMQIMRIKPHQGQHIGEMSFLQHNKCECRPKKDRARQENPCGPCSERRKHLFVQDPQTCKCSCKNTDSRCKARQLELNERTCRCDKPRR", "assay": "cell-based or functional assay"}, "recombinant human IL-6 [1]": {"target": "T1, recombinant human IL-6 (human, UniProt P05231 30-212)", "T1 construct": "Analyte in the Biacore assays; also called interleukin-6", "assay": "SPR Biacore, purified dual inhibitor captured on Protein A, IL-6 analyte, 37 C", "T1 sequence (P05231 30-212 limits assumed)": "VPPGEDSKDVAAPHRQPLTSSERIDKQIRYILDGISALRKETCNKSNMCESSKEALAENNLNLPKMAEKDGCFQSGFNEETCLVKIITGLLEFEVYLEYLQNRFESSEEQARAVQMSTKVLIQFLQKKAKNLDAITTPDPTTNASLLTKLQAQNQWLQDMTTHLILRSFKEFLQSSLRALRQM"}, "recombinant human IL-6 [2]": {"target": "T1, recombinant human IL-6", "assay": "SPR Biacore, cell supernatant dual inhibitor captured on Protein A, IL-6 analyte, 25 C"}, "recombinant human IL-6 [3]": {"target": "T2, recombinant human IL-6 (human, UniProt P05231 30-212)", "T2 construct": "bought protein; also called interleukin-6", "assay": "Biacore at 37 C, antibody captured on Protein A, IL-6 as analyte", "T2 sequence (P05231 30-212 limits assumed)": "as above"}}, "data": [{"binder": "VEGFR-AntiIL6 (heavy chain of sequences 1A-2A-3H, light chain of sequence 4A) (bispecific antibody) fusion: SDTGRPFVEMYSEIPEIIHMTEGRELVIPCRVTSPNITVTLKKFPLDTLIPDGKRIIWDSRKGFIISNATYKEIGLLTCEATVNGHLYKTNYLTHRQTNTIIDVVLSPSHGIELSVGEKLVLNCTARTELNVGIDFNWEYPSSKHQHKKLVNRDLKTQSGSEMKKFLSTLTIDGVTRSDQGLYTCAASSGLMTKKNSTFVRVHEKGGGGSGGGGSEVQLVESGGGLVQPGGSLRLSCAASGFTFSPFAISWVRQAPGKGLEWVAKISPGGSWTYYSDTVTDRFTFSLDTSKSTAYLQMNSLRAEDTAVYYCARQLWGYYALDVWGQGTLVTVSSASTKGPSVFPLAPSSKSTSGGTAALGCLVKDYFPEPVTVSWNSGALTSGVHTFPAVLQSSGLYSLSSVVTVPSSSLGTQTYICNVNHKPSNTKVDKKVEPKSCDKTHTCPPCPAPEAAGAPSVFLFPPKPKDTLMISRTPEVTCVVVDVSHEDPEVKFNWYVDGVEVHNAKTKPREEQYNSTYRVVSVLTVLHQDWLNGKEYKCKVSNKALPAPIEKTISKAKGQPREPQVYTLPPSREEMTKNQVSLTCLVKGFYPSDIAVEWESNGQPENNYKTTPPVLDSDGSFFLYSKLTVDKSRWQQGNVFSCSVMHEALHNHYTQKSLSCSPGK light: DIQLTQSPSSLSASVGDRVTITCSASISVSYLYWYQQKPGKAPKLLIYDDSSLASGVPSRFSGSGSGTDFTLTISSLQPEDFATYYCQQWSGYPYTFGQGTKVEIKRTVAAPSVFIFPPSDEQLKSGTASVVCLLNNFYPREAKVQWKVDNALQSGNSQESVTEQDSKDSTYSLSSTLTLSKADYEKHKVYACEVTHQGLSSPVTKSFNRGEC", "values": [{"measurement": "cell-based VEGF stimulated VEGFR reporter assay (KDR/VEGF HEK293 cells, luminescence), IC50", "setting": "VEGF", "result": 0.18, "unit": "nM"}]}, {"binder": "dual inhibitor variant L of Table 2.1 (AntiIL-6-VEGF Trap) (other, Antibody-VEGF trap fusion, trap between Fab and Fc of the heavy chain (VH variant II); also called molecule L) heavy: EVQLVESGGGLVQPGGSLRLSCAASGFTFSPFAWSWVRQAPGKGLEWVAKISPGGSWTYYSDTVTDRFTFSLDTSKSTAYLQMNSLRAEDTAVYYCARQLWGYYALDVWGQGTLVTVSSASTKGPSVFPLAPSSKSTSGGTAALGCLVKDYFPEPVTVSWNSGALTSGVHTFPAVLQSSGLYSLSSVVTVPSSSLGTQTYICNVNHKPSNTKVDKKVEPKSCGGGGSGGGGSSDTGRPFVEMYSEIPEIIHMTEGRELVIPCRVTSPNITVTLKKFPLDTLIPDGKRIIWDSRKGFIISNATYKEIGLLTCEATVNGHLYKTNYLTHRQTNTIIDVVLSPSHGIELSVGEKLVLNCTARTELNVGIDFNWEYPSSKHQHKKLVNRDLKTQSGSEMKKFLSTLTIDGVTRSDQGLYTCAASSGLMTKKNSTFVRVHEKDKTHTCPPCPAPEAAGAPSVFLFPPKPKDTLMISRTPEVTCVVVDVSHEDPEVKFNWYVDGVEVHNAKTKPREEQYNSTYRVVSVLTVLHQDWLNGKEYKCKVSNKALPAPIEKTISKAKGQPREPQVYTLPPSREEMTKNQVSLTCLVKGFYPSDIAVEWESNGQPENNYKTTPPVLDSDGSFFLYSKLTVDKSRWQQGNVFSCSVMHEALHNHYTQKSLSCSPGK light: DIQLTQSPSSLSASVGDRVTITCSASISVSYLYWYQQKPGKAPKLLIYDDSNLASGVPSRFSGSGSGTDFTLTISSLQPEDFATYYCQQWSGYPYTFGQGTKVEIKRTVAAPSVFIFPPSDEQLKSGTASVVCLLNNFYPREAKVQWKVDNALQSGNSQESVTEQDSKDSTYSLSSTLTLSKADYEKHKVYACEVTHQGLSSPVTKSFNRGEC", "values": [{"measurement": "Kd", "setting": "recombinant human IL-6 [1]", "result": 0.436, "unit": "nM"}, {"measurement": "koff", "setting": "recombinant human IL-6 [1]", "result": 0.00065, "unit": "s⁻¹"}, {"measurement": "kon", "setting": "recombinant human IL-6 [1]", "result": "1.49e+06", "unit": "M⁻¹ s⁻¹"}, {"measurement": "Kd", "setting": "recombinant human IL-6 [2]", "result": 0.239, "unit": "nM"}, {"measurement": "koff", "setting": "recombinant human IL-6 [2]", "result": 0.000169, "unit": "s⁻¹"}, {"measurement": "kon", "setting": "recombinant human IL-6 [2]", "result": 705000, "unit": "M⁻¹ s⁻¹"}]}, {"binder": "anti-IL-6 antibody, heavy chain S35H, G66D, light chain M32L/M50D/N52S/M88Q (antibody, human IgG1, V domains shown, engineered human IgG1 as m23; also called S35H G66D double mutant with mutagenized light chain) VH: EVQLVESGGGLVQPGGSLRLSCAASGFTFSPFAMHWVRQAPGKGLEWVAKISPGGSWTYYSDTVTDRFTFSLDTSKSTAYLQMNSLRAEDTAVYYCARQLWGYYALDIWGQGTLVTVSS VL: DIQLTQSPSSLSASVGDRVTITCSASISVSYLYWYQQKPGKAPKLLIYDDSSLASGVPSRFSGSGSGTDFTLTISSLQPEDFATYYCQQWSGYPYTFGQGTKVEIK", "values": [{"measurement": "fold increase in affinity relative to the wild-type heavy chain", "setting": "recombinant human IL-6 [3]", "result": "~1.3", "unit": "fold"}]}, {"binder": "anti-IL-6 antibody, heavy chain S35H, G66D, light chain wild-type (antibody, human IgG1, V domains shown, engineered human IgG1 as m23; also called S35H G66D double mutant) VH: EVQLVESGGGLVQPGGSLRLSCAASGFTFSPFAMHWVRQAPGKGLEWVAKISPGGSWTYYSDTVTDRFTFSLDTSKSTAYLQMNSLRAEDTAVYYCARQLWGYYALDIWGQGTLVTVSS VL: DIQLTQSPSSLSASVGDRVTITCSASISVSYMYWYQQKPGKAPKLLIYDMSNLASGVPSRFSGSGSGTDFTLTISSLQPEDFATYYCMQWSGYPYTFGQGTKVEIK", "values": [{"measurement": "fold increase in affinity relative to the wild-type heavy chain", "setting": "recombinant human IL-6 [3]", "result": "~2", "unit": "fold"}]}]}
